Experiment [1] deals with T1, IL-18/IL-18BP complex (human, UniProt Q14116 37-193).
T1 construct: Complex of IL-18 with IL-18BP; in the third Luminex screening step IL-18BP was linked to the beads and then complexed to IL-18; Stoichiometry 1:1 is only cited from the literature; also called IL-18 previously complexed to IL-18BP; complex IL-18/IL-18BP
T1 sequence 1: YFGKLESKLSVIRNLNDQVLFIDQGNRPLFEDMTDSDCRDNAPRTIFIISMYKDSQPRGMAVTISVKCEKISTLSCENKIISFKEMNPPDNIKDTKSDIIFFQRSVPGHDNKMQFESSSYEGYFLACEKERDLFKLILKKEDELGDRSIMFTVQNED
T1 sequence 2: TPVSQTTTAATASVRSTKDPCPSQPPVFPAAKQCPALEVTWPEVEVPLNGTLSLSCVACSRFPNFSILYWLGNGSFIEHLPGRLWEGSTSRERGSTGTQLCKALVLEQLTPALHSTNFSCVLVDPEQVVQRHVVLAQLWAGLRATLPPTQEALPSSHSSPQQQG
As to the kind of experiment: Luminex third screening against first screening.

Experiment [2] deals with T2, recombinant human IL-18 (human, UniProt Q14116 37-193).
T2 construct: Commercial recombinant human IL-18; In the Luminex screening it was attached to beads; also called Interleukin-18; human interleukin-18
T2 sequence (looked up): T1 sequence 1
As to the kind of experiment: Luminex; mAb on IL-18 beads.

Experiment [3] addresses T1, IL-18/IL-18BP complex. As to the kind of experiment: Luminex; mAb on IL-18 complexed to bead-linked IL-18BP.
In experiment [4] the target is T2, recombinant human IL-18. As to the kind of experiment: Luminex; biotinylated IL-18BP (competitor) on IL-18 beads pre-bound with the mAb; the signal is IL-18BP binding.

B1: Antibody 131E8 (antibody)
chain 1: QVQLKQSRPGPVQPSQSLSITCTVSGFSLPNYGVHWVRQPPGKGLEWLGVIWSGGSTDYNAAFKSRLSISKDNSKSQVFFKMNSLQADDTAIYYCARNFYSKYDYAMDYWGQGTSVTVSS
chain 2: QVQLQQPGSVLVRPGASVKLSCKASGYTFTSYWMHWVKQRPGQGLEWIGNINPNSGSTNYNEKFKGKATLTVDTSSSTAYMDLSSLTSEDSAVYYCARLGDYWGQGTTLTVSS
chain 3: ENVLTQSPAIMSASPGEKVTMTCSASSSVSYMHWYQQKSSTSPKLWIYDTSKLASGVPGRFSGSGSGNSYSLTISSMEAEDVATYYCFQGSGYPLTFGSGTKLEIK
Turning to B1, in the experiment with IL-18/IL-18BP complex [1], the “fold inhibition of binding to IL-18 complexed to IL-18BP against binding to IL-18 alone” value is > 500 fold. For the same molecule, the Fluorescence intensity with recombinant human IL-18 [2] is 25400 fluorescence intensity; with IL-18/IL-18BP complex [3], 36 fluorescence intensity. For the same molecule, in the experiment with recombinant human IL-18 [4], the “Fluorescence intensity (IL-18BP binding on IL-18 previously complexed to monoclonal antibody)” value is 1390 fluorescence intensity.

B2: Antibody 111A6 (antibody, V domains shown)
VH: EVQLQQSGAELVKPGASVKLSCTASGFKIKDTYIHWVIQRPAQGLEWIGRIDPANGNTIYGSKFQGKATLTADTSSNTAYIHLSSLTSGDSAVYYCAGYVWFAYWGQGTLVTVSA
VL: DVVMTQVPLSLPVSLGDQASISCRSSQRLVHSNGNTYLHWFLQKPGQSPKLLIYTVSNRFSGVPDRFSGSGSGTDFTLKISRVEAEDLGVYFCSQSTLVPWTFGGGTKLEIK
Regarding B2, the Fluorescence intensity is 25900 fluorescence intensity in the experiment with recombinant human IL-18 [2] and 42 fluorescence intensity in the experiment with IL-18/IL-18BP complex [3]. Also, the “Fluorescence intensity (IL-18BP binding on IL-18 previously complexed to monoclonal antibody)” value with recombinant human IL-18 [4] was 1400 fluorescence intensity.

These data come from patent publication US20160215048A1 (published 2016).
